The values below are quoted from earlier work in publication PMC3377446.

In this data set the target is PDL1 (Homo sapiens) (UniProt Q9NZQ7).
UniProt Q9NZQ7, sequence (Q9NZQ7 19-238): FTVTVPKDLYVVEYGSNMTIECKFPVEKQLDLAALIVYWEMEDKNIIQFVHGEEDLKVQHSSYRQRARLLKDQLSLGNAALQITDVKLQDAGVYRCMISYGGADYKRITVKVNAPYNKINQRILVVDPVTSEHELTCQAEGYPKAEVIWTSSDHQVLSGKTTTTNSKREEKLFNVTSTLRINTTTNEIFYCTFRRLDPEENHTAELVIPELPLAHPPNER

For the substance CD80 (from UniProt P33681), the Kd (as a rule, the free concentration of one partner at which half of the binding sites on the other are occupied at equilibrium, for simple one-to-one binding) was 1400 nM.
